Residue numbers refer to the chain shown, from its start.
B1: DH270.6 (antibody, V domains shown)
VH: QVQLVQSGAQMKNPGASVKVSCAPSGYTFTDFYIHWLRQAPGQGLQWMGWMNPQTGRTNTARNFQGRVIMTRDTSIGTAYMELRSLTSDDTAIYYCTTGGWISLYYDSSYYPNFDHWGQGTLLTVSS
VL: TSLLTQPASVSGSPGQSITISCTGTKYDVGSHDLVSWYQQYPGKVPKYMIYEVNKRPSGVSNRFSGSKSGNTASLTISGLRAEDEADYYCCSFGGSATVVCGGGTKVTVL
B2: DH270.IA4 (antibody, V domains shown)
VH: QVQLVQSGAEVKKPGASVKVSCKASGYTFTDYYIHWVRQAPGQGLEWMGWINPNTGRTNYAQKFQGRVTMTRDTSISTAYMELSRLRSDDTAVYYCARGGWIGLYYDSSGYPNFDYWGQGTLVTVSS
VL: QSALTQPASVSGSPGQSITISCTGTSYDVGSYNLVSWYQQHPGKAPKLMIYEVSKRPSGVSNRFSGSKSGNTASLTISGLQAEDEADYYCCSYAGSSTVIFGGGTKLTVL
B3: DH270.1 (antibody, V domains shown)
VH: B2 VH with V11M, T69I, R87T, R98T
VL: B2 VL with L48Y, S54N
B4: DH270.3 (antibody, V domains shown)
VH: QVQLVQSGAEMKNPGASVKVSCAASGYTFTDFYIHWVRLAPGQGLEWMGWMNPKTGRTNNAQNFQGRVIMTRDTSIGTAYMELRRLTSDDTAVYYCVTGGWISPYYDSSYYPNFDHWGQGTLVTVSS
VL: B1 VL with T1Q, L3A, K26S, S31K, H32F, Y41H, V45A, R56W, N62H, R81Q
B5: DH270.5 (antibody, V domains shown)
VH: B4 VH with M11V, A24P, M48L, N60Q, A61G, R85S, G100A, P104D
VL: LPVLTQPASVSGSPGQSITISCTGTIYDVGKFDLVSWYQHHPGKAPKYLIYEVKKWPSGVSHRFSGSKSGNTASLTISGLQVEDEADYYCCSFGGSAAVVCGGGTKVTVL
B6: DH270.4 (antibody, V domains shown)
VH: B4 VH with Q1E, T28G, Q43H, E46Q, N63D, M70L, V123I
VL: QSALTQPASVSGSPGQSITISCTGTSYDVAKFDLVSWFQQHPGKAPKYMIYEVNKWPSGVSHRFSGSKSGNTASLTISGLQAEDEADYYCCSFGGSATVVCGGGTKVTVL
B7: DH270.2 (antibody, V domains shown)
VH: QVQLVQSGAEMKKPGASVRVSCKASGYTFTDYYIHWVRQAPGQGPEWMGWINPSTGRTNSPQKFQGRVIMTRDTSISTAYMDLNRLTSDDTAMYYCTTGGWIGLYSDTSGYPNFDYWGQGTLVTVSS
VL: B2 VL with S26N, A45V, L48Y, M49I, S54N, T98I, V99I, I100F, L110I

biological target: Man9-V3 glycopeptide; assay: biolayer interferometry, biotinylated peptide on streptavidin sensors

Q: For B1, which Kd is on record?
A: 188 nM

Q: With B2 as the binder, how does the Kd read?
A: > 10000 nM

Q: With B3 as the binder, how does the Kd read?
A: 331 nM

biological target: Man9-V3 glycopeptide; assay: biolayer interferometry, biotinylated Man9-V3 on streptavidin sensors, antibody in solution; inset curves (100, 50, 25 µg/mL) after subtraction of the palivizumab signal

Q: With B2 as the binder, how does the Kd read?
A: > 10000 nM

biological target: Man9-V3 glycopeptide; assay: biolayer interferometry, biotinylated Man9-V3 on streptavidin sensors, antibody in solution, global fit to the bivalent avidity model

Q: Which results are given for B4?
A: koff: 0.000778 s⁻¹; kon: 4000 M⁻¹ s⁻¹

Q: Which results are given for B5?
A: koff: 0.00091 s⁻¹; kon: 3300 M⁻¹ s⁻¹

Q: What does the source list for B1?
A: koff: 0.00037 s⁻¹; kon: 1970 M⁻¹ s⁻¹

Q: B6 was tested. Which koff did it give?
A: 0.00052 s⁻¹

Q: And the kon?
A: 1500 M⁻¹ s⁻¹

Q: Which results are given for B7?
A: koff: 0.0081 s⁻¹; kon: 1710 M⁻¹ s⁻¹

Q: For B3, which koff is on record?
A: 0.00051 s⁻¹

Q: What about the kon of the same binder?
A: 1540 M⁻¹ s⁻¹
